Experimental findings from IntAct's records for PubMed 36402845 are described below.

The chains are these.
B1: Exostosin-2 (Homo sapiens), Q93063 (parent)
chain: MCASVKYNIRGPALIPRMKTKHRIYYITLFSIVLLGLIATGMFQFWPHSIESSNDWNVEKRSIRDVPVVRLPADSPIPERGDLSCRMHTCFDVYRCGFNPKNKIKVYIYALKKYVDDFGVSVSNTISREYNELLMAISDSDYYTDDINRACLFVPSIDVLNQNTLRIKETAQAMAQLSRWDRGTNHLLFNMLPGGPPDYNTALDVPRDRALLAGGGFSTWTYRQGYDVSIPVYSPLSAEVDLPEKGPGPRQYFLLSSQVGLHPEYREDLEALQVKHGESVLVLDKCTNLSEGVLSVRKRCHKHQVFDYPQVLQEATFCVVLRGARLGQAVLSDVLQAGCVPVVIADSYILPFSEVLDWKRASVVVPEEKMSDVYSILQSIPQRQIEEMQRQARWFWEAYFQSIKAIALATLQIINDRIYPYAAISYEEWNDPPAVKWGSVSNPLFLPLIPPQSQGFTAIVLTYDRVESLFRVITEVSKVPSLSKLLVVWNNQNKNPPEDSLWPKIRVPLKVVRTAENKLSNRFFPYDEIETEAVLAIDDDIIMLTSDELQFGYEVWREFPDRLVGYPGRLHLWDHEMNKWKYESEWTNEVSMVLTGAAFYHKYFNYLYTYKMPGDIKNWVDAHMNCEDIAMNFLVANVTGKAVIKVTPRKKFKCPECTAIDGLSLDQTHMVERSECINKFASVFGTMPLKVVEHRADPVLYKDDFPEKLKSFPNIGSL
partner: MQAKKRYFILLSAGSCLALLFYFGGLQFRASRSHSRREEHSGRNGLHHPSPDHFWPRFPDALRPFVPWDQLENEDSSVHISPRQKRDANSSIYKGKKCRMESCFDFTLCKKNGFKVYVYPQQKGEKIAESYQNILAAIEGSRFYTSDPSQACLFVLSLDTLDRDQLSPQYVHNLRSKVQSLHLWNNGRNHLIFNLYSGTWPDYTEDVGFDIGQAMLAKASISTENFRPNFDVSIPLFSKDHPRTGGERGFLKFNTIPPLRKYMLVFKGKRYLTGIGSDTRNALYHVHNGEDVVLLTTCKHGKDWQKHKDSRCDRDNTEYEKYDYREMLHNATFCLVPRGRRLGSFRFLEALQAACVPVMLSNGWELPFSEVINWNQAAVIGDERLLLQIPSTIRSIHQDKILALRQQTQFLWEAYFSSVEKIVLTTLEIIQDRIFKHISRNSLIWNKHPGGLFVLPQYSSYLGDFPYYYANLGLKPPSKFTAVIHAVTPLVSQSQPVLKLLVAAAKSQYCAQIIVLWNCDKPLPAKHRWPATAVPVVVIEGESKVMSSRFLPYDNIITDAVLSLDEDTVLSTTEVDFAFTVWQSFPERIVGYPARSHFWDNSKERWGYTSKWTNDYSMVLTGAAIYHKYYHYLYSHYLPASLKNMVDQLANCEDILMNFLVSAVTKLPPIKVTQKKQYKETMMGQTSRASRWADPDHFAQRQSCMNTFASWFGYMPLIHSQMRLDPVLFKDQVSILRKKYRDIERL
B2: Exostosin-1 (Homo sapiens), Q16394 (parent)
chain: B1 partner
partner: B1 chain

Variants of B1 are the subject of the first experiment. To be noted: with ext1_human EXT1, Q16394.
On to D538N;D540N, for which the “effect of a mutation on the interaction” value is listed as “with no effect”. The same measure, in the same setting: the result for R266A reads “with no effect”.

The variants in another experiment derive from B2. Particulars: with ext2_human EXT2, Q93063.
For the variant D565N;D567N, the “effect of a mutation on the interaction” value is “decreasing interaction strength”. Turning to R346A, the “effect of a mutation on the interaction” value is recorded as “with no effect”. With D162N;D164N, the “effect of a mutation on the interaction” value is “with no effect”. Regarding R280A, the “effect of a mutation on the interaction” value is reported as “with no effect”.
